Paper PMC2646761

Substrate: CC#CC(=O)C(=O)O
Test: purified protein
Type: biochemical, Corynebacterium glutamicum
Conditions: hydration of 2-oxo-3-pentynoate; typical value of the enzyme preparations used

B1: Cg10062 (Corynebacterium glutamicum ATCC 13032) (protein)
chain: PTYTCWSQRIRISREAKQRIAEAITDAHHELAHAPKYLVQVIFNEVEPDSYFIAAQSASENHIWVQATIRSGRTEKQKEELLLRLTQEIALILGIPNEEVWVYITEIPGSNMTEYGRLLMEPGEEEKWFNSLPEGLRERLTELEGSSE
Km: 4.2 ± 0.3 mM | kcat: 0.16 ± 0.01 s⁻¹
